Literature values as cited in PMC12851578.

Molecular target: F-actin (Oryctolagus cuniculus) (UniProt P68135)
Details: cited from earlier work

For LifeAct (from UniProt Q08641), which Kd is on record?
The Kd was 2200 nM.
